Results as given in patent US11459389 (dated 2022).

T1: human Clec7A (human, UniProt Q9BXN2)
T1 chain: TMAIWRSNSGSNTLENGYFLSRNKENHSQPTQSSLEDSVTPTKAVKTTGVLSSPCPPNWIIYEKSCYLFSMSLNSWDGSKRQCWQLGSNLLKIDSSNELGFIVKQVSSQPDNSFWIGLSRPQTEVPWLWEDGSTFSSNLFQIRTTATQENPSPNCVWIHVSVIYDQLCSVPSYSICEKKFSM

T2: human CD94 (human, UniProt Q13241)
T2 chain: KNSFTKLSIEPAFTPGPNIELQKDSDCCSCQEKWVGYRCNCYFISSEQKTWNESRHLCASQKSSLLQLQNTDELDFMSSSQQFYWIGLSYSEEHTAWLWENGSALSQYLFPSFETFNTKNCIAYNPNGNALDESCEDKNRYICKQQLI

T3: human KLRF1 (human, UniProt Q9NZS2)
T3 chain: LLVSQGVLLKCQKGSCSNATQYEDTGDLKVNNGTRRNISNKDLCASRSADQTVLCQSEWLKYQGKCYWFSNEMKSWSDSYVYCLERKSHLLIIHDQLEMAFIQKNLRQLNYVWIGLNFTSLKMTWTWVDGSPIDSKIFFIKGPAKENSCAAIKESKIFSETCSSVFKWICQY

T4: human KLRG1 (human, UniProt Q96E93)
T4 chain: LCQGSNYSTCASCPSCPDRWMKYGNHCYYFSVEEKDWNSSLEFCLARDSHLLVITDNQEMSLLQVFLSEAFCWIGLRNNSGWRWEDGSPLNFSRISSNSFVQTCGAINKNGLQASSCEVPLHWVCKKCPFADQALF

T5: human Clec10A (human, UniProt Q8IUN9)
T5 chain: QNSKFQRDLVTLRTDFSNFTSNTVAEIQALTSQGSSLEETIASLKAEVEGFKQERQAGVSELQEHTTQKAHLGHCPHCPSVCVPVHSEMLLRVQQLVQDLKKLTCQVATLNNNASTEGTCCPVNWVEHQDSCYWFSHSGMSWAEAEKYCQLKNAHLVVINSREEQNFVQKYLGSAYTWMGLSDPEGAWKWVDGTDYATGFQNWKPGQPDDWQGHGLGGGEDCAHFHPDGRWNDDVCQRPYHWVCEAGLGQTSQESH

T6: human Clec5A (human, UniProt Q9NY25)
T6 chain: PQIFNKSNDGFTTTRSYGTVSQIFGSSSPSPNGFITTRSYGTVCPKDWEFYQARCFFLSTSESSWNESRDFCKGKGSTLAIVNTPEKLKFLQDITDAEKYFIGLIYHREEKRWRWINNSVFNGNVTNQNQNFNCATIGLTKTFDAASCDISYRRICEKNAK

T7: human Clec4E (human, UniProt Q9ULY5)
T7 chain: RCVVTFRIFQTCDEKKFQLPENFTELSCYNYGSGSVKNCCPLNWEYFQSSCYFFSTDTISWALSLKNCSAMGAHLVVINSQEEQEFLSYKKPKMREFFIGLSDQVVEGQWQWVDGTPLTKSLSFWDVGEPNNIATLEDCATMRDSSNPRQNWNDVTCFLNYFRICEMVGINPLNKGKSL

T8: human Clec12B (human, UniProt Q2HXU8)
T8 chain: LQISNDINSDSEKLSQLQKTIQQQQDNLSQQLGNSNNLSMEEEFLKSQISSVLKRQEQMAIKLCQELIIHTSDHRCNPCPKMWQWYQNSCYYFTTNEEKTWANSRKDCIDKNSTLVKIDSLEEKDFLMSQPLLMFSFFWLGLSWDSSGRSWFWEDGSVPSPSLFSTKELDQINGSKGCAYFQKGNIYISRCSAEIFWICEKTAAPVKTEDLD

T9: human CD209 (human, UniProt Q9NNX6)
T9 chain: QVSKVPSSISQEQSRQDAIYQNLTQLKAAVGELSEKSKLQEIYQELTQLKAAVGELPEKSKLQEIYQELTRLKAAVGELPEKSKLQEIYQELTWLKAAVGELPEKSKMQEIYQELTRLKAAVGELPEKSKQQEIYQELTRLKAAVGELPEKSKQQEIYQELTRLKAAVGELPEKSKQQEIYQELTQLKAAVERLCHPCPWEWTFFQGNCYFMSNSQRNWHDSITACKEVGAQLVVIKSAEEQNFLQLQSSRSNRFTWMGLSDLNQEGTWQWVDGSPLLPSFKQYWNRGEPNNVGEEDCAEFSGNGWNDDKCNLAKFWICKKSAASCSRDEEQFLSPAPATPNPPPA

T10: human KLRF2 (human, UniProt D3W0D1)
T10 chain: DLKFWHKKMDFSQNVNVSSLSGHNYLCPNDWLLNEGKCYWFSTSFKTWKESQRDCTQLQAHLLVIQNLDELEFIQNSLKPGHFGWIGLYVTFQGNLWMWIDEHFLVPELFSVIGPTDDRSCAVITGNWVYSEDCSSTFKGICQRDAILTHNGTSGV


Experiments:
Assay in all cases: FACS
human Clec7A = molecular target: T1, human Clec7A
human CD94 = molecular target: T2, human CD94
human KLRF1 = molecular target: T3, human KLRF1
human KLRG1 = molecular target: T4, human KLRG1
human Clec9A = human Clec9A (human, UniProt Q6UXN8)
Chain of human Clec9A (Q6UXN8 57-241): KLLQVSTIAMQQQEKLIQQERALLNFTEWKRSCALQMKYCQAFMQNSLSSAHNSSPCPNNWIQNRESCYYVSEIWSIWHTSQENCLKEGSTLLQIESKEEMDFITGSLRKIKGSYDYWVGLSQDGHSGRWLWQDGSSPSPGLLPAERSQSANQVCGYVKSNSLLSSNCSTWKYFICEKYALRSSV

human Clec10A = molecular target: T5, human Clec10A
human Clec5A = molecular target: T6, human Clec5A
human Clec4E = molecular target: T7, human Clec4E
human Clec12B = molecular target: T8, human Clec12B
human CD209 = molecular target: T9, human CD209
human KLRF2 = molecular target: T10, human KLRF2
human CD161 = human CD161 (human, UniProt Q12918)

Binder	binding result (human Clec7A)	binding result (human CD94)	binding result (human KLRF1)	binding result (human KLRG1)	binding result (human Clec9A)	binding result (human Clec10A)	binding result (human Clec5A)	binding result (human Clec4E)	binding result (human Clec12B)	binding result (human CD209)	binding result (human KLRF2)	Kd (human CD161) [nM]
KW1.3.12 (antibody) chain 1: EVQLVESGGGLVQPGGSLRLSCAASGFTFSSYAMSWVRQAPGKGLEWVSTISGSGGSTYYADSVKGRFTISRDNSRNTLYLQMNSLRAEDTAVYYCARGGLIPSGFDYWGQGTLVTVSS chain 2: DIQMTQSPSSLSASVGDRVTITCRASQSISSYLNWYQQKPGKAPKLLIYAASSLLSGVPSRFSGSGSGTDFTLTISSLQPEDFATYYCQQTYSAPLTFGQGTKVEIK	no binding	no binding	no binding	no binding	no binding	no binding	no binding	no binding	no binding	no binding	no binding	–
KW7.3.7 (antibody) chain 1: EVQLVESGGGLVQPGGSLRLSCAASGFTFSSYAMSWVRQAPGKGLEWVSATSGSGGSTYYADSAKGRFTISRDNSKNTLYLQMNSLRAEDTAVYYCARGGYLPDAFDYWGRGTLVTVSS chain 2: DIQMTQSPSSLSASVGDRVTITCWASQSISSYLNWYQQEPGKAPKLLIYAASSLQSGVPSRFSGSGSGTDFTLTISSLQPEDFATYYCQQTYSTPLTFGQGTKVEIK	no binding	no binding	no binding	no binding	no binding	no binding	no binding	no binding	no binding	no binding	no binding	–
KW1.2.1 (antibody) chain 1: EVQLVESGGGLVQPGGSLRLSCAASGSTFSSYAMSWVRQAPGKGLEWVSTISGSGGSTYYADSVKGRFTISRDNSRNTLYLQMNSLRAEDTAVYYCARGGLIPSGFDYWGQGTLVTVSS chain 2: DIQMTQSPSSLSASVGDRVTITCRASQSISSYLNWYQQKPGKAPKLLIYAASSLLSGVPSRFSGGGSGTDFTLTISSLQPEDFATYYCQQTYSTPLTFGQGTKVEIK	–	–	–	–	–	–	–	–	–	–	–	0.233
KM12.4.7 (antibody) chain 1: EVQLVESGGGLVQPGGSLRLPCAASGFTFSSYAMSWIRQAPGKGLEWVSAISGSGGSIYYADSVKGRFTISRDNSKNTLYLQMDSLRAEDTAVYYCARGYSDSYFYGPYYTFDYWGQGTLVTVSS chain 2: not shown	no binding	no binding	no binding	no binding	no binding	no binding	no binding	no binding	no binding	no binding	no binding	–
